Reference: patent US20200207850A1 (MacroGenics, published 2020)

Assays:
[1] = molecular target: T1, CD8 on human T cells (PBMC) (human, UniProt P01732 22-235); assay: flow cytometry on human PBMC, CD5+/CD4- gated cells (bear CD8 and CD3), detection PE anti-human Fc (MFI)
T1 construct: whole, on cells; The CD8+ (CD5+ CD4-) cells also carry CD3; also called CD5+ CD4- gated PBMC; CD8+ T cells
Procedure: 50 μL (4×10⁶ cells/mL) of well-mixed cells in FACS buffer containing 0.01% sodium azide were then added into corresponding wells and mixed thoroughly using a pipette. The plate was incubated in the dark for about 45 minutes at 2-8° C. At the end of the incubation, the cells were washed twice by adding 300 μL of FACS buffer to each well, centrifuging the plate at 1,200 rpm for 5 minutes, and discarding the supernatant. The cell pellets were re-suspended in 100 μL mixture of PE-conjugated goat anti-Human Fcγ 1:500 diluted, CD5-APC and CD4-PerCP5.5 in FACS buffer containing 0.01% sodium azide, and incubated in the dark for about 45 minutes at 2-8° C. At the end of the incubation, the cells were washed, re-suspended with FACS buffer, and analyzed with a BD Caliber flow cytometer. Cells were gated to CD5⁺ CD4⁺ (FIG. 9A) or CD5⁺ CD4⁻ (FIG. 9B).

[2] = molecular target: T1, CD8 on human T cells (PBMC); assay: flow cytometry on human PBMC, CD5+/CD4- gated cells (bear CD8 and CD3), detection anti-human Fc (MFI)
[3] = molecular target: T2, B7-H3 on A498 and JIMT-1 target cells (UniProt Q5ZPR3 29-534, limits assumed); assay: cell-based or functional assay
T2 sequence (looked up): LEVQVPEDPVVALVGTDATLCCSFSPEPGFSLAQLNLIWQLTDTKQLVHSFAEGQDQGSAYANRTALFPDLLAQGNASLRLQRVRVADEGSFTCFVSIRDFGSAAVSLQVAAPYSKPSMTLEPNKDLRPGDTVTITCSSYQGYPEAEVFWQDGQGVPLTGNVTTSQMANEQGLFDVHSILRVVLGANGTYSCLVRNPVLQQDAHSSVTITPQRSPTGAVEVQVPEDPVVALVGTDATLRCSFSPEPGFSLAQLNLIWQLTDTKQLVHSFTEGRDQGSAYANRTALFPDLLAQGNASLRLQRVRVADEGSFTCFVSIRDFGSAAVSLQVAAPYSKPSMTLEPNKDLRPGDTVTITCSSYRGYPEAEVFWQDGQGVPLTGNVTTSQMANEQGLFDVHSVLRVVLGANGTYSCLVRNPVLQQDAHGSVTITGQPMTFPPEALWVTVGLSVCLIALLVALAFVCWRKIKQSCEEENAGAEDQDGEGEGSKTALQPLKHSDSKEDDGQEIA

[4] = molecular target: T1, CD8 on human T cells (PBMC); assay: flow cytometry, binding to human CD5+/CD4- cells (bear CD8 and CD3) (MFI)
[5] = molecular target: T2, B7-H3 on A498 and JIMT-1 target cells; assay: cell-based or functional assay; remark: listed apart in the source

T1 sequence (P01732 22-235): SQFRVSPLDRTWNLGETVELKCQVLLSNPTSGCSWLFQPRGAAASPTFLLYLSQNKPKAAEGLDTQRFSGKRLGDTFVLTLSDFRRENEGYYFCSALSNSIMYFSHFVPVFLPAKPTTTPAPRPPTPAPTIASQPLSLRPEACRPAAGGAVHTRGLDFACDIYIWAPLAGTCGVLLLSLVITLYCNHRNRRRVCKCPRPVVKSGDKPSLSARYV

B1: B7-H3 mAb 1/CD3 mAb 2/CD8 mAb 1 Tri-Specific Binding Molecule (other)
chain 1: DIQMTQSPSSLSASVGDRVTITCRASQDISNYLNWYQQKPGKAPKLLIYYTSRLHSGVPSRFSGSGSGTDFTLTISSLQPEDIATYYCQQGNTLPPTFGGGTKLEIKGGGSGGGGEVQLVESGGGLVQPGGSLRLSCAASGFTFSTYAMNWVRQAPGKGLEWVGRIRSKYNNYATYYADSVKDRFTISRDDSKNSLYLQMNSLKTEDTAVYYCVRHGNFGNSYVSWFAYWGQGTLVTVSSGGCGGGEVAALEKEVAALEKEVAALEKEVAALEKGGGDKTHTCPPCPAPEAAGGPSVFLFPPKPKDTLMISRTPEVTCVVVDVSHEDPEVKFNWYVDGVEVHNAKTKPREEQYNSTYRVVSVLTVLHQDWLNGKEYKCKVSNKALPAPIEKTISKAKGQPREPQVYTLPPSREEMTKNQVSLWCLVKGFYPSDIAVEWESNGQPENNYKTTPPVLDSDGSFFLYSKLTVDKSRWQQGNVFSCSVMHEALHNHYTQKSLSLSPGK
chain 2: QAVVTQEPSLTVSPGGTVTLTCRSSTGAVTTSNYANWVQQKPGQAPRGLIGGTNKRAPWTPARFSGSLLGGKAALTITGAQAEDEADYYCALWYSNLWVFGGGTKLTVLGGGGSGGGGQVQLVQSGAEVKKPGASVKVSCKASGYTFTSYWMQWVRQAPGQGLEWMGTIYPGDGDTRYTQKFKGRVTITADKSTSTAYMELSSLRSEDTAVYYCARRGIPRLWYFDVWGQGTTVTVSSGGCGGGKVAALKEKVAALKEKVAALKEKVAALKE
heavy: EVQLQQSGAELVKPGASVKLSCTASGFNIKDTYIHFVRQRPEQGLEWIGRIDPANDNTLYASKFQGKATITADTSSNTAYMHLCSLTSGDTAVYYCGRGYGYYVFDHWGQGTTLTVSSASTKGPSVFPLAPSSKSTSGGTAALGCLVKDYFPEPVTVSWNSGALTSGVHTFPAVLQSSGLYSLSSVVTVPSSSLGTQTYICNVNHKPSNTKVDKRVEPKSCDKTHTCPPCPAPEAAGGPSVFLFPPKPKDTLMISRTPEVTCVVVDVSHEDPEVKFNWYVDGVEVHNAKTKPREEQYNSTYRVVSVLTVLHQDWLNGKEYKCKVSNKALPAPIEKTISKAKGQPREPQVYTLPPSREEMTKNQVSLSCAVKGFYPSDIAVEWESNGQPENNYKTTPPVLDSDGSFFLVSKLTVDKSRWQQGNVFSCSVMHEALHNRYTQKSLSLSPGK
light: DVQINQSPSFLAASPGETITINCRTSRSISQYLAWYQEKPGKTNKLLIYSGSTLQSGIPSRFSGSGSGTDFTLTISGLEPEDFAMYYCQQHNENPLTFGAGTKLELRRTVAAPSVFIFPPSDEQLKSGTASVVCLLNNFYPREAKVQWKVDNALQSGNSQESVTEQDSKDSTYSLSSTLTLSKADYEKHKVYACEVTHQGLSSPVTKSFNRGEC
notes: Four different polypeptide chains covalently complexed, with Fc Domain
- EC50 (read off the curve) [1]: ~2 nM
- EC50 (read off the curve) [2]: ~2 nM
- LDH EC50 (pM), A498 cells [3]: 4 pM
- LDH EC50 (pM), JIMT-1 cells [3]: 0.4 pM
- Luciferase EC50 (pM), JIMT-1 cells [3]: 0.6 pM
- EC50 (read off the curve) [4]: ~2 nM
- EC50 (nM) of killing, CD4+ effector cells, JIMT1-luc target cells, E:T 5:1 [5]: 0.0721 nM
- EC50 (nM) of killing, CD8+ effector cells, JIMT1-luc target cells, E:T 5:1 [5]: 0.0054 nM
- EC50 (nM) of killing, PanT effector cells, JIMT1-luc target cells, E:T 5:1 [5]: 0.0082 nM
